# Test results as given in article PMC6199149.
# Experiments:
# [1] = molecular target: nuclear dUTP nucleotidohydrolase (nuclear isoform of dUTPase), endogenous (human (endogenous in U-2 OS, Saos2, A549, 18Co, HeLa)); assay: cross-linking
# [2] = molecular target: nuclear dUTP nucleotidohydrolase (nuclear isoform of dUTPase), endogenous (human (endogenous in U-2 OS, Saos2, A549, 18Co, HeLa)); assay: non-reducing SDS-PAGE with western blot
# [3] = molecular target: recombinant Wt nuclear dUTPase with N-terminal hexahistidine tag, from E. coli (human); settings: scale: pmol of dUTP per minute per ng of protein
"dUTPase enzymatic assay (37°C, 5 min, no reducing agent) [3]",Substance,stoichiometry N [1],stoichiometry N [2]
,"nuclear dUTP nucleotidohydrolase (nuclear isoform of dUTPase), endogenous (enzyme)",2,2
7.27,"recombinant Wt nuclear dUTPase with N-terminal hexahistidine tag, from E. coli (enzyme)",,
